Holding throughout (experiment): cell-based or functional assay
In assay [1] the target is human GLP-1 receptor (human, UniProt P43220 24-463).
For assay [2], the target named is human GCG receptor (human, UniProt P47871 26-477).
Assay [3] addresses T1, human GIP receptor (human, UniProt P48546 22-466).
T1 sequence (looked up): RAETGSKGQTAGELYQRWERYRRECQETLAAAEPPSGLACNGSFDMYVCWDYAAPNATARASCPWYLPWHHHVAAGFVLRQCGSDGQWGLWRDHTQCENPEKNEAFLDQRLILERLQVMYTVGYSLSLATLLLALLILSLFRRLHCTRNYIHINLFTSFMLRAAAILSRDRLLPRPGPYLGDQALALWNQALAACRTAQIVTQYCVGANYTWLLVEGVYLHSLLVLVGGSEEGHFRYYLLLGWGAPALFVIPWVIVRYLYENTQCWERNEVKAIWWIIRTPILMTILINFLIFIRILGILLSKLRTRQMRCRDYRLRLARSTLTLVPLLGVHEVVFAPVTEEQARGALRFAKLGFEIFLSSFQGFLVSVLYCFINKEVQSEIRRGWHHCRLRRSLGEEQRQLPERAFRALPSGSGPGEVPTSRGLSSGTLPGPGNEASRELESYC

Bridges are numbered along the chain shown (N, C = ends). Where no end group is shown, it is not given here. [ ]: non-standard residue; d: D form. The star is where a group is joined. Acetyl(2-(4-imidazolyl)) = O=C(Cc1c[nH]cn1)*; Aib = CC(C)(N)C(=O)O

human GCG receptor, sequence (P47871 26-477): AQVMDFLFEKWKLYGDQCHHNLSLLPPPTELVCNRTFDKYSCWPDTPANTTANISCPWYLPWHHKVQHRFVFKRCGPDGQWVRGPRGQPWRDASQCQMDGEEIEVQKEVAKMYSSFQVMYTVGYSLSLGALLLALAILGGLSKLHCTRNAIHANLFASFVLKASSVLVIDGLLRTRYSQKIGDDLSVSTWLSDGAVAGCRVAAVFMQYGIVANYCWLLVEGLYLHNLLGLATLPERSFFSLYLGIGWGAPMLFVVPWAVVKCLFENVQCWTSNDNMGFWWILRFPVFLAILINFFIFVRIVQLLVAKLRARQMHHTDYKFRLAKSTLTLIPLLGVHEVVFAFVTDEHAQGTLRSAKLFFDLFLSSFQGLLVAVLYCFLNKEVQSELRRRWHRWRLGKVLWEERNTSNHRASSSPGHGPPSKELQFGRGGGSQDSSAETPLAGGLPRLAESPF

Take Y[Aib]QGTFTSDYSKCLDEKRAKEFVQWLLDHHPSSGQPPPS (bridge 16-20) [triple agonist of SEQ ID NO: 22]: in assay [1], the “In vitro activity relative to native peptide (%) vs. GLP-1” value stood at 20.1%. Also, the “In vitro activity relative to native peptide (%) vs. Glucagon” value in assay [2] was determined as 140%. Moreover, the “In vitro activity relative to native peptide (%) vs. GIP” value in assay [3] amounted to 59.7%.
Y[Aib]QGTFTSDYSKYLDECRAKEFVQWLKNGGPSSGAPPPS (bridge 16-20) [triple agonist of SEQ ID NO: 24]: the “In vitro activity relative to native peptide (%) vs. GLP-1” value in assay [1] worked out at 41.2%. For the same molecule, the “In vitro activity relative to native peptide (%) vs. Glucagon” value in assay [2] is 9.3%. Besides, in assay [3], the “In vitro activity relative to native peptide (%) vs. GIP” value was under 0.1%.
Consider H[Aib]QGTFTSDYSKYLDEKACKDFVQWLLDGGPSSGAPPPS (bridge 16-20) [triple agonist of SEQ ID NO: 32], for which the “In vitro activity relative to native peptide (%) vs. GLP-1” value in assay [1] stood at 151%. Moreover, the “In vitro activity relative to native peptide (%) vs. Glucagon” value in assay [2] amounted to 1.7%. Moreover, the “In vitro activity relative to native peptide (%) vs. GIP” value in assay [3] was 8.8%.
With [Acetyl(2-(4-imidazolyl))]GQGTFTSDLSKQMDSERAREFIEWLKNTGPSSGAPPPSHG [triple agonist of SEQ ID NO: 18], the “In vitro activity relative to native peptide (%) vs. GLP-1” value in assay [1] was under 0.1%. Moreover, the “In vitro activity relative to native peptide (%) vs. Glucagon” value in assay [2] is under 0.1%. Besides, the “In vitro activity relative to native peptide (%) vs. GIP” value in assay [3] is under 0.1%.
In the case of [Acetyl(2-(4-imidazolyl))]GQGTFTSDYSIQLDEIAVRDFVEWLKNGGPSSGAPPPSHG [triple agonist of SEQ ID NO: 14], the “In vitro activity relative to native peptide (%) vs. GLP-1” value in assay [1] is 28%. Further, in assay [2], the “In vitro activity relative to native peptide (%) vs. Glucagon” value is under 0.1%. The “In vitro activity relative to native peptide (%) vs. GIP” value in assay [3] was under 0.1%.
In the case of Y[Aib]QGTFTSDYSKALDEKAAKEFVNWLLDQHPSSGQPPPSC (bridge 16-20) [triple agonist of SEQ ID NO: 101], the “In vitro activity relative to native peptide (%) vs. GLP-1” value in assay [1] was found to be 23.2%. Also, the “In vitro activity relative to native peptide (%) vs. Glucagon” value in assay [2] amounted to 13.9%. Also, the “In vitro activity relative to native peptide (%) vs. GIP” value in assay [3] was 40.1%.
On to Y[Aib]QGTFTSDYSKALDEKAAKDFVNWLLDQHPSSGQPPPSC (bridge 16-20) [triple agonist of SEQ ID NO: 102], for which the “In vitro activity relative to native peptide (%) vs. GLP-1” value in assay [1] turned out to be 23.3%. In assay [2], the “In vitro activity relative to native peptide (%) vs. Glucagon” value was determined as 29.5%. Further, in assay [3], the “In vitro activity relative to native peptide (%) vs. GIP” value came out at 58%.
Turning to [Acetyl(2-(4-imidazolyl))]GEGTFISDLSKYMDEQAVQLFVEWLMAGGPSSGAPPPSHG [triple agonist of SEQ ID NO: 12], the “In vitro activity relative to native peptide (%) vs. GLP-1” value in assay [1] is 0.4%. Moreover, in assay [2], the “In vitro activity relative to native peptide (%) vs. Glucagon” value is under 0.1%. The “In vitro activity relative to native peptide (%) vs. GIP” value in assay [3] was under 0.1%.
On to H[Aib]QGTFTSDYSKYLDEKAAKEFVQWLLNTC (bridge 16-20) [triple agonist of SEQ ID NO: 29], for which the “In vitro activity relative to native peptide (%) vs. GLP-1” value in assay [1] is 38.5%. Moreover, the “In vitro activity relative to native peptide (%) vs. Glucagon” value in assay [2] came out at 6%. Also, in assay [3], the “In vitro activity relative to native peptide (%) vs. GIP” value was under 0.1%.
Taken in the same sequence, the figures for H[Aib]QGTFTSDVSSYLDGQAQKEFIAWLVKGC [triple agonist of SEQ ID NO: 2] were 5.9%, under 0.1% and under 0.1%.
In the case of [Acetyl(2-(4-imidazolyl))]GQGTFTSDLSKQMDEERAREFIEWLLAQKPSSGAPPPSHG [triple agonist of SEQ ID NO: 17], the “In vitro activity relative to native peptide (%) vs. GLP-1” value in assay [1] turned out to be 0.2%. For the same molecule, in assay [2], the “In vitro activity relative to native peptide (%) vs. Glucagon” value was under 0.1%. In addition, in assay [3], the “In vitro activity relative to native peptide (%) vs. GIP” value is under 0.1%.
With H[Aib]QGTFTSDCSKYLDERAAQDFVQWLLDGGPSSGAPPPS [triple agonist of SEQ ID NO: 25], the “In vitro activity relative to native peptide (%) vs. GLP-1” value in assay [1] is 82.6%. In addition, in assay [2], the “In vitro activity relative to native peptide (%) vs. Glucagon” value is 0.1%. Further, the “In vitro activity relative to native peptide (%) vs. GIP” value in assay [3] is under 0.1%.
As for [Acetyl(2-(4-imidazolyl))]GQGTFTSDLSIQYDSEHQRDFIEWLKDTGPSSGAPPPSHG [triple agonist of SEQ ID NO: 19], the “In vitro activity relative to native peptide (%) vs. GLP-1” value in assay [1] was under 0.1%. The “In vitro activity relative to native peptide (%) vs. Glucagon” value in assay [2] is under 0.1%. In addition, the “In vitro activity relative to native peptide (%) vs. GIP” value in assay [3] is under 0.1%.
For Y[Aib]QGTFTSDYSKALDEKAAKEFVQWLLDQHPSSGQPPPSC (bridge 16-20) [triple agonist of SEQ ID NO: 100], the “In vitro activity relative to native peptide (%) vs. GLP-1” value in assay [1] is 42.2%. The “In vitro activity relative to native peptide (%) vs. Glucagon” value in assay [2] worked out at 12.7%. The “In vitro activity relative to native peptide (%) vs. GIP” value in assay [3] came out at 118%.
The like results for [Acetyl(2-(4-imidazolyl))]GQGTFTSDLSKQMDSEAQQLFIEWLKNGGPSSGAPPPSHG [triple agonist of SEQ ID NO: 16] were, in that order, 2.1%, under 0.1% and under 0.1%.
Taken in the same sequence, the figures for H[Aib]QGTFTSDYSKYLDEKAQKEFVQWLLDTC (bridge 16-20) [triple agonist of SEQ ID NO: 30] were 142%, 0.7% and 0.8%.
Take H[Aib]QGTFTSDVSSYLLGQAAKQFIAWLVKGGGPSSGAPPPSC [triple agonist of SEQ ID NO: 3]: in assay [1], the “In vitro activity relative to native peptide (%) vs. GLP-1” value came out at 1.8%. Further, the “In vitro activity relative to native peptide (%) vs. Glucagon” value in assay [2] is under 0.1%. Besides, the “In vitro activity relative to native peptide (%) vs. GIP” value in assay [3] was under 0.1%.
With H[Aib]QGTFTSDYSKYLDERACQDFVQWLLDQGGPSSGAPPPS [triple agonist of SEQ ID NO: 27], the “In vitro activity relative to native peptide (%) vs. GLP-1” value in assay [1] is 83.1%. Besides, the “In vitro activity relative to native peptide (%) vs. Glucagon” value in assay [2] came out at 0.8%. Moreover, the “In vitro activity relative to native peptide (%) vs. GIP” value in assay [3] turned out to be 0.9%.
With H[Aib]QGTFTSDYSKYLDEKACKEFVQWLLAQ (bridge 16-20) [triple agonist of SEQ ID NO: 31], the “In vitro activity relative to native peptide (%) vs. GLP-1” value in assay [1] was 135%. Also, in assay [2], the “In vitro activity relative to native peptide (%) vs. Glucagon” value turned out to be 2.2%. Besides, in assay [3], the “In vitro activity relative to native peptide (%) vs. GIP” value is 2.4%.
Taken in the same sequence, the figures for [Acetyl(2-(4-imidazolyl))]GQGTFTSDLSIQYEEEAQQDFVEWLKDTGPSSGAPPPSHG [triple agonist of SEQ ID NO: 20] were under 0.1%, under 0.1% and under 0.1%.
On to Y[Aib]QGTFTSDYSKALDEKAAKDFVNWLLDHHPSSGQPPPSC (lactam 16-20) [triple agonist of SEQ ID NO: 99], for which the “In vitro activity relative to native peptide (%) vs. GLP-1” value in assay [1] was found to be 20.9%. Besides, the “In vitro activity relative to native peptide (%) vs. Glucagon” value in assay [2] was determined as 14.9%. Also, the “In vitro activity relative to native peptide (%) vs. GIP” value in assay [3] came out at 57.7%.
As to H[Aib]QGTFTSDCSKYLDSRAAQDFVQWLLDGGPSSGAPPPS [triple agonist of SEQ ID NO: 26], the “In vitro activity relative to native peptide (%) vs. GLP-1” value in assay [1] was determined as 64.5%. In addition, in assay [2], the “In vitro activity relative to native peptide (%) vs. Glucagon” value worked out at 0.2%. In assay [3], the “In vitro activity relative to native peptide (%) vs. GIP” value is under 0.1%.
For H[Aib]QGTFTSDYSKYLDEKRAQEFVCWLLAQKGKKNDWKHNIT [triple agonist of SEQ ID NO: 28], the “In vitro activity relative to native peptide (%) vs. GLP-1” value in assay [1] came out at 17.2%. Further, in assay [2], the “In vitro activity relative to native peptide (%) vs. Glucagon” value was found to be 1.6%. Also, in assay [3], the “In vitro activity relative to native peptide (%) vs. GIP” value was under 0.1%.
Regarding Y[Aib]QGTFTSDYSKYLDECRAKEFVQWLLAQKGKKNDWKHNIT (bridge 16-20) [triple agonist of SEQ ID NO: 23], the “In vitro activity relative to native peptide (%) vs. GLP-1” value in assay [1] worked out at 4.01%. In addition, the “In vitro activity relative to native peptide (%) vs. Glucagon” value in assay [2] worked out at 9.3%. In addition, the “In vitro activity relative to native peptide (%) vs. GIP” value in assay [3] is under 0.1%.
Taken in the same sequence, the figures for [Acetyl(2-(4-imidazolyl))]GEGTFTSDLSKYLDSRRQQLFVQWLKAGGPSSGAPPPSHG [triple agonist of SEQ ID NO: 11] were 1.4%, under 0.1% and under 0.1%.
With Y[Aib]QGTFTSDYSKYLDECRAKEFVQWLLDHHPSSGQPPPS (bridge 16-20) [triple agonist of SEQ ID NO: 21], the “In vitro activity relative to native peptide (%) vs. GLP-1” value in assay [1] was found to be 17.8%. Also, the “In vitro activity relative to native peptide (%) vs. Glucagon” value in assay [2] was found to be 267%. For the same molecule, the “In vitro activity relative to native peptide (%) vs. GIP” value in assay [3] was 22.7%.

These data come from patent US20230302148A1, “PHARMACEUTICAL COMPOSITION COMPRISING LONG-ACTING CONJUGATE OF TRIPLE GLUCAGON/GLP-1/GIP RECEPTOR AGONIST” (HANMI PHARM. CO., LTD., priority 2020, published 2023).
